Results: patent US20180127493A1

How the values were obtained:
[1] = molecular target: recombinant human VEGF165 (PeproTech EC Ltd.) (human) (UniProt P15692); assay: SPR, BIAcore T100, hVEGF165 amine-coupled on CM4 chip, scFv as analyte
[2] = molecular target: VEGF (as used in the VEGFR competition ELISA); assay: competition ELISA, VEGF binding to hVEGFR1; ratio to reference Luc
[3] = molecular target: Human TNFα N-his trimers (human) (UniProt P01375); assay: SPR, BIAcore T100, His-tagged human TNFα trimers captured on NTA chip, scFv as analyte
Chain of Human TNFα N-his trimers (human) (P01375 77-233 limits assumed): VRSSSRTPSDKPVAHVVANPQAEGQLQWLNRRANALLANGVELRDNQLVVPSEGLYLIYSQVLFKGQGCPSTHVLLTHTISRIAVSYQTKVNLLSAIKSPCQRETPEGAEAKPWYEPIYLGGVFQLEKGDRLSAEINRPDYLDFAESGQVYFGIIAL

Chain of recombinant human VEGF165 (PeproTech EC Ltd.) (human) (P15692 other isoform, or with tags, fused parts or gaps limits assumed): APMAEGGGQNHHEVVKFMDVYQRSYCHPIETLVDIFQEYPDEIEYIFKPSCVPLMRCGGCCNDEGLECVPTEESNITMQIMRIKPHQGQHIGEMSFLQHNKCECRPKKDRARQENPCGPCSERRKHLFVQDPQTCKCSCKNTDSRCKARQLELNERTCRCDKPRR
Chain of VEGF (as used in the VEGFR competition ELISA) (P15692 whole entry): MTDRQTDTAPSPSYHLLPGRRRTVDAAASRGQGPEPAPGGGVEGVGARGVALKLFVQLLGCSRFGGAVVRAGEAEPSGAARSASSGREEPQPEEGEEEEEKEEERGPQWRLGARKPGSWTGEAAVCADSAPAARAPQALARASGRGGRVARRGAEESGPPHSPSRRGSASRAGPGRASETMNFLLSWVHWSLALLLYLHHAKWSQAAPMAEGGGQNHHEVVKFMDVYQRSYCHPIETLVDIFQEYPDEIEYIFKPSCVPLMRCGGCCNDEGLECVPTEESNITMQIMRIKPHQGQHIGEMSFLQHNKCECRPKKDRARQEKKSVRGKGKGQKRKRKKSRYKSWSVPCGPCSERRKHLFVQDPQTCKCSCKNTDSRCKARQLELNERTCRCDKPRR

| Kd [1] | koff [1] | kon [1] | Rel. activity hVEGR1 comp. ELISA (EC50Luc [nM]/EC50test [nM]) [2] | Kd [3] | Binder |
| --- | --- | --- | --- | --- | --- |
| 0.439 nM | 0.000307 s⁻¹ | 700000 M⁻¹ s⁻¹ |  |  | 578-max (scFv, from a related filing, part only) scFv: EIVMTQSPSTLSASVGDRVIITCQASEIIHSWLAWYQQKPGKAPKLLIYLASTLASGVPSRFSGSGSGTQFTLTISSLQPDDFATYYCQNVYLASTNGANFGQGTKLTVLGGGGGSGGGGSGGGGSGGGGSEVQLVESGGGLVQPGGSLRLSCTASGFSLTDYYYMTWVRQAPGKGLEWVGFIDPDDDPYYATWAKGRFTISRDTSKNTVYLQMNSLRAEDTAVYYCAGGDHNSGWGLDIWGQGTLVTVSS |
| 0.0667 nM | 4.4e-05 s⁻¹ | 659000 M⁻¹ s⁻¹ | 8 |  | 511-max (scFv, from a related filing, part only) scFv: EIVMTQSPSTLSASVGDRVIITCQASQSINIWLSWYQQKPGKAPKLLIYRASTLASGVPSRFSGSGSGTEFTLTISSLQPDDFATYYCQANYAYSAGYGAAFGQGTKLTVLGGGGGSGGGGSGGGGSGGGGSEVQLVESGGGLVQPGGSLRLSCTVSGFSLNTYYMNWVRQAPGKGLEWVGIIAPDDTTYYASWAKSRSTISRDTSKNTVYLQMNSLRAEDTAVYYCARSGDTTAWGADIWGQGTLVTVSS |
|  |  |  |  | 5540 nM | EP43_min (scFv) scFv: EIVMTQSPSTLSASVGDRVIITCQASQSISDWLAWYQQKPGKAPKLLIYGASRLASGVPSRFSGSGSGAEFTLTISSLQPDDFATYYCQQGWSDSYVDNLFGQGTKLTVLGGGGGSGGGGSGGGGSGGGGSEVQLVESGGGLVQPGGSLRLSCAASGFSLSSGAMSWVRQAPGKGLEWVSVIISSGATYYASWAKGRFTISRDNSKNTLYLQMNSLRAEDTAVYYCAKGGPDDSNSMGTFDPWGQGTLVTVSS |
